# In US7794710:
# Molecular target: human B7-H1 (hB7-H1) on the cell surface (human) (UniProt Q9NZQ7)
# Experiment: cell-based or functional assay
# Chain of UniProt Q9NZQ7 (Q9NZQ7 19-290 limits assumed): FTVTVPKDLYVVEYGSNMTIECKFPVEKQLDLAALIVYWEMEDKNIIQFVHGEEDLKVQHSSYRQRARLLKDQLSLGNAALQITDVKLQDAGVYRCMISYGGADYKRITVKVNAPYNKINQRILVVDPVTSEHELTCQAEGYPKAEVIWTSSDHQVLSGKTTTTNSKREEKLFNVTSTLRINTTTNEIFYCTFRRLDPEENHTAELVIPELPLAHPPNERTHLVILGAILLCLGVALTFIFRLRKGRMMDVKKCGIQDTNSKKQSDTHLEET
substance,measurement,value
5H1 mAb specific for hB7-H1 (antibody),inhibition of apoptosis of M15 CTL cultured with B7-H1/624mel cells,> 50%
